What was measured:
Assay in all cases: cell_activity
[1] = tested on: ZFN SBS 17622 (BAK) (synthetic); details: pair 17622/17623, MDCK cells, CEL-I/Surveyor
[2] = tested on: ZFN SBS 17627 (BAK) (synthetic); details: pair 17627/17626, MDCK cells, CEL-I/Surveyor
[3] = tested on: ZFN SBS 10077 (BAX) (synthetic); details: BAX ZFNs of Table 1 (pair 10077/10079 inferred), Bak-deficient CHO, 21 of 79 clones Bsl I assay
[4] = tested on: ZFN SBS 17623 (BAK) (synthetic); details: pair 17622/17623, MDCK cells, CEL-I/Surveyor
[5] = tested on: ZFN SBS 17626 (BAK) (synthetic); details: pair 17627/17626, MDCK cells, CEL-I/Surveyor
[6] = tested on: ZFN SBS 10079 (BAX) (synthetic); details: BAX ZFNs of Table 1 (pair 10077/10079 inferred), Bak-deficient CHO, 21 of 79 clones Bsl I assay
[7] = tested on: ZFN SBS 17659 (BAX) (synthetic); details: pair 17658/17659, MDCK cells, CEL-I/Surveyor
[8] = tested on: ZFN SBS 17658 (BAX) (synthetic); details: pair 17658/17659, MDCK cells, CEL-I/Surveyor

Q: With “AATGATGCAGCATGA (double strand) [BAK 17622 half-site]” as the sequence, how does the activity (% alleles modified) [1] read?
A: 3.7

Q: Which activity (% alleles modified) [2] does the source give for “AGGGGTGGCTGGGTAG (double strand) [BAK 17627 half-site]” here?
A: 1.1

Q: How did the activity (% clones modified) [3] turn out when “CAGGGTGGCTGG (double strand) [BAX 10077 half-site]” was run?
A: 27

Q: How did the activity (% alleles modified) [4] turn out when “CCGGTGGATCGCGCAGAG (double strand) [BAK 17623 half-site]” was run?
A: 3.7

Q: “GATCCACCGGGCAATGCA (double strand) [BAK 17626 half-site]” was tested. Which activity (% alleles modified) [5] did it give?
A: 1.1

Q: With “GATCCAGACAAG (double strand) [BAX 10079 half-site]” as the sequence, how does the activity (% clones modified) [6] read?
A: 27

Q: With “GGTTGGGTGAGGCCTG (double strand) [BAX 17659 half-site]” as the sequence, how does the activity (% alleles modified) [7] read?
A: 8

Q: How did the activity (% alleles modified) [8] turn out when “GTCCTGGATCCAGCC (double strand) [BAX 17658 half-site]” was run?
A: 8

From patent publication US20100003756
